Test results as given in the supplement of paper PMC9170038.

Test system: MS2 coat protein
Experiment: apparent KD of MS2 coat protein; designed switch direction (-1 OFF switch, 1 ON switch): -1; higher = weaker reporter binding
In short: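 SNAP-549-labelled MS2 coat protein was titrated, doubling from 0.7 or 1.5 nM to 3 µM, over designed RNA switches transcribed on Illumina chips by stalled E. coli RNA polymerase. Runs were done without input, with 200 uM small-molecule ligand, or with an oligonucleotide input. Apparent KD is the per-design median over clusters of curve-fitted normalised fluorescence.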

[1] = Eterna round: R95, input ligand: microRNA oligo, concentration not stated
[2] = input ligand: microRNA oligo, concentration not stated
[3] = Eterna round: R95, input ligand: FMN 200 uM
[4] = Eterna round: R95, input ligand: none

UUUUGACAUGAGGAUCACCCAUGUGAGGAUAUGAUGCGAUCGUCGAAAGACGAUAGCAUCAGAAGGCACAUAUG [Fiskers Ex 1 - 9] (puzzle: Exclusion 1)
apparent KD of MS2 coat protein [1]: 125 nM

CGCGGCGCGUAGGAUAUUGGGUCGGACGGCAAAUAAGAAGGACGCACAUGAGGAUCACCCAUGUCGAAAGCACA [Eternabot (Original) Solution 17] (Eterna round: R97, puzzle: Exclusion 6)
apparent KD of MS2 coat protein (input ligand: FMN 200 uM): 27.8 nM | apparent KD of MS2 coat protein (input ligand: none): 33.7 nM

UAACAAAUGGUCAGGAUAUCACUCCCGGCCCAGAGUGAGAAGGGACAUGAGGAUCACCCAUGUAUGAUUCUCAC [jl-ex4-4.54 ViennaUCT mod] (Eterna round: R97, puzzle: Brourd's mod of Exclusion 4)
apparent KD of MS2 coat protein (input ligand: FMN 200 uM): 19.7 nM | apparent KD of MS2 coat protein (input ligand: none): 15.1 nM

AAUACAAGCUAUUGAUCCCACAUGAGGAUCACCCAUGUUCCUGGCCGUGAGGCUAGGUAGACAAUAGCUCGUCUUAU [Sensor-V1 #43] (Eterna round: R97, puzzle: Sensor, turn-off variant 1)
apparent KD of MS2 coat protein (input ligand: FMN 200 uM): 27.9 nM | apparent KD of MS2 coat protein (input ligand: none): 26.4 nM

GAUCAACAUGAGGAUCACCCAUGUGAGGAUAUGUAUCAUAGAUCUUCGGAUCUAUGAUACAGAAGGCAUGUAGG [Ex1-3: 100] (puzzle: Exclusion 1)
apparent KD of MS2 coat protein [1]: 74.2 nM

GCCGAAAAUGUGAGGAUAUACCUAUGGAUACAUAGGUAGAAGGCACAUGAGGAUCACCCAUGUCUAAUAACGGC [Eli bmx4 4.26] (Eterna round: R97, puzzle: Brourd's mod of Exclusion 4)
apparent KD of MS2 coat protein (input ligand: FMN 200 uM): 521 nM | apparent KD of MS2 coat protein (input ligand: none): 212 nM

AAAACGGACCGAGGAUAUACACGAUAUCUUUGCGUAGAAGGCGGACCGGCGACUUGAGGAUCACCCAAGUGUCCUCUUUUGCGG [Mutated MS2 EX1.4] (Eterna round: R96, puzzle: Exclusion NG 1)
apparent KD of MS2 coat protein (input ligand: FMN 200 uM): 323 nM | apparent KD of MS2 coat protein [2]: 110 nM | apparent KD of MS2 coat protein (input ligand: none): 175 nM

AUAACAAGCUUUUUUUUCGUAGUACAUGACGCUCGAGUCACAUGAGGAUCACCCAUGUCUUCCUGUUUGAUUGUUGA [JR_SV3TOV2_Sub058] (puzzle: Sensor v3, turn-off variant 2)
apparent KD of MS2 coat protein [3]: 45.8 nM | apparent KD of MS2 coat protein [1]: 54.7 nM | apparent KD of MS2 coat protein [4]: 54.6 nM

UAUUAGCAAGCGAGAUCCCACAUGAGGAUCACCCAUGUAAUAAGCAUCCAGAAUUACUGGGUGCAAGCUCGUCUUAU [Winner reversed engineered 10] (Eterna round: R97, puzzle: Sensor, turn-off variant 1)
apparent KD of MS2 coat protein (input ligand: FMN 200 uM): 45.4 nM | apparent KD of MS2 coat protein (input ligand: none): 42.9 nM

CUUUACAAGCUAAGAUCCUACAUGAGGAUCACCCAUGUGGUCCGGUGACGUGAGUCACCGGACUUAGCUCGUCUUGG [salish99_S_TOV1_R5_095] (Eterna round: R97, puzzle: Sensor, turn-off variant 1)
apparent KD of MS2 coat protein (input ligand: FMN 200 uM): 30.1 nM | apparent KD of MS2 coat protein (input ligand: none): 32.2 nM

UUUAAAAUUUCAAUCUUCGCUGGCAAACUUGCGCCAGCUACAUGAGGAUCACCCAUGUUUUUUGCCCGUCUUAUUCU [Inisti] (puzzle: Sensor v3, turn-off variant 2)
apparent KD of MS2 coat protein [3]: 24.3 nM | apparent KD of MS2 coat protein [1]: 170 nM | apparent KD of MS2 coat protein [4]: 26.7 nM

GGUUAUUGCAAGGAUAUGCUUUUUUUUUAUAUUGCAGAAGGUGCAACAUGAGGAUCACCCAUGUUGGAGGGUUU [JR_E6_Sub022] (puzzle: Exclusion 6)
apparent KD of MS2 coat protein [1]: 26 nM

GAAAAGCUAGGAUAUACGAAAAAAAAGGGUAGAAAAAAAACACAUGAGGAUCACCCAUGUAGAAGGAGCAAAAG [salish99_ex2_r3_093] (puzzle: Exclusion 2)
apparent KD of MS2 coat protein [3]: 102 nM | apparent KD of MS2 coat protein [1]: 51 nM | apparent KD of MS2 coat protein [4]: 48.2 nM

CGCGUAUGAGGAUAUGCAUAAAAGGGUGCACUGAGUCUGAGACAUGAGGAUCACCCAUGUAGAAGGCGUGCGCU [Beerteon] (puzzle: Exclusion 2)
apparent KD of MS2 coat protein [1]: 13.6 nM

UUGAGUCGGAAGGAUAUGCGAGCCGCCGGGUCAGCAGAAGGUCCGACAUGAGGAUCACCCAUGUUGGGCGAGGA [EX6 B.10] (Eterna round: R97, puzzle: Exclusion 6)
apparent KD of MS2 coat protein (input ligand: FMN 200 uM): 351 nM | apparent KD of MS2 coat protein (input ligand: none): 25.2 nM

UUUAACAAGCCAGAUCCUCACAUGAGGAUCACCCAUGUGCUCGUCUGAUUUUGUACUAUCAUGUGAGUGAUAGUGUU [Level Boss var2-06] (puzzle: Sensor v3, turn-off variant 1)
apparent KD of MS2 coat protein [3]: 67.3 nM | apparent KD of MS2 coat protein [1]: 24.7 nM | apparent KD of MS2 coat protein [4]: 115 nM

CCAAGCUUAUUCAUUAACCACAUGAGGAUCACCCAUGUAUAGGCAAUUAUGACUGGGCUCUGUGGUGCUCGUCUUAU [Sensor-V1 #27] (Eterna round: R97, puzzle: Sensor, turn-off variant 1)
apparent KD of MS2 coat protein (input ligand: FMN 200 uM): 146 nM | apparent KD of MS2 coat protein (input ligand: none): 143 nM

GCGUGGCGUAAGGAUAUCCAUACGGUAUAACCGGGAGAAGGUACGACAUGAGGAUCACCCAUGUGGCCUGGAAA [Sorimaat] (Eterna round: R97, puzzle: Exclusion 6)
apparent KD of MS2 coat protein (input ligand: FMN 200 uM): 64.4 nM | apparent KD of MS2 coat protein (input ligand: none): 22.2 nM

GUAGCUCUCGAGGAUAUGGAUAGAAAAGUUAGUCCAGAAGGCGAGACAUGAGGAUCACCCAUGUUGGACUCUGC [Eternabot (L2) Solution 77] (Eterna round: R97, puzzle: Exclusion 6)
apparent KD of MS2 coat protein (input ligand: FMN 200 uM): 118 nM | apparent KD of MS2 coat protein (input ligand: none): 60.4 nM

ACUUGUAGAGGAUAUACGAGGGCCCAAGCGGCGAGAGCCGCACAUGAGGAUCACCCAUGUAGAAGGCUACUAUU [JL-ex2-4.25 ViennaUCT mod] (Eterna round: R97, puzzle: Exclusion 2)
apparent KD of MS2 coat protein (input ligand: FMN 200 uM): 374 nM | apparent KD of MS2 coat protein (input ligand: none): 116 nM

AUUAAACAUGUAGGAUAUGCAUAGCAAAGCUAUGCAGAAGGACAUGAGGAUCACCCAUGUAAAAGCGUCUGAGUACAGAUGCAA [Mat - Exclusion NG 1 - Mod of JL - D89] (Eterna round: R96, puzzle: Exclusion NG 1)
apparent KD of MS2 coat protein (input ligand: FMN 200 uM): 402 nM | apparent KD of MS2 coat protein [2]: 53.2 nM | apparent KD of MS2 coat protein (input ligand: none): 57 nM

AGAAGUAGUAACCGAUCCUACAUGAGGAUCACCCAUGUAGCAAGACGUGCACGCGAAGCUCGUCAGACUACCAGAUG [salish99_TOv1_r3_020] (puzzle: Sensor v3, turn-off variant 1)
apparent KD of MS2 coat protein [3]: 159 nM | apparent KD of MS2 coat protein [1]: 252 nM | apparent KD of MS2 coat protein [4]: 242 nM

CGUGACUGAGGAUAUCUAUAAUGUCACAUGAGGAUCACCCAUGUCCAGCGAAAGCUGGAGGGAGAAGGCAGUCACG [Fiskers Ex 5 - 33] (puzzle: Exclusion 5)
apparent KD of MS2 coat protein [3]: 29.4 nM | apparent KD of MS2 coat protein [1]: 55.5 nM | apparent KD of MS2 coat protein [4]: 74.6 nM

CUGAGCAGACGGAGAUCCAACAUGAGGAUCACCCAUGUCUCAAAAGCUUUUUGCUUGUCUUACCCUCCUCUGUUCUC [Isceeren] (puzzle: Sensor v3, turn-off variant 1)
apparent KD of MS2 coat protein [3]: 18.1 nM | apparent KD of MS2 coat protein [1]: 122 nM | apparent KD of MS2 coat protein [4]: 15.7 nM

CCUAGUUGGUAAGGAUAUCCUACACUAUUCUGACCCGUGCAAGCUACAUGAGGAUCACCCAUGUGGGAGAAGGUGCGUCAACGC [Design 11] (Eterna round: R96, puzzle: Exclusion NG 2)
apparent KD of MS2 coat protein (input ligand: FMN 200 uM): 29.1 nM | apparent KD of MS2 coat protein [2]: 19.7 nM | apparent KD of MS2 coat protein (input ligand: none): 32.9 nM

CGCAAGUUAGGAUAUGACGCGAAUUUCCGGCUUUGGCCGGAUCAGAAGGAACUUGAGGAUCACCCAAGUGGCCG [Adia] (Eterna round: R97, puzzle: Exclusion 4)
apparent KD of MS2 coat protein (input ligand: FMN 200 uM): 20.1 nM | apparent KD of MS2 coat protein (input ligand: none): 15.9 nM

UGUGAGCAUGUCAGGAUAUGCAUCACAGUUAGGAUGUAGAAGGGACAUGAGGAUCACCCAUGUAGCUUCAGGUA [BmEX4 A.20] (Eterna round: R97, puzzle: Brourd's mod of Exclusion 4)
apparent KD of MS2 coat protein (input ligand: FMN 200 uM): 17.7 nM | apparent KD of MS2 coat protein (input ligand: none): 14.5 nM

UACCUGAGGCAAAGCUUUAGGCUUACAUGAGGAUCACCCAUGUAGGAUAUGGUAGGCAAAGCUUACCAGAAGGACAUGGAAAUU [Mat - Exclusion NG 3 - Mod of JL - D23] (Eterna round: R96, puzzle: Exclusion NG 3)
apparent KD of MS2 coat protein (input ligand: FMN 200 uM): 398 nM | apparent KD of MS2 coat protein [2]: 68.1 nM | apparent KD of MS2 coat protein (input ligand: none): 86.8 nM

AGUAAGCUAGGAUAUGCUUUGGGAAAGCCUUCCUUCGAUAAACUUGAGGAUCACCCAAGUAGAAGGAGCUAAAU [jl-ex2.4.48 ViennaUCT mod] (Eterna round: R97, puzzle: Exclusion 2)
apparent KD of MS2 coat protein (input ligand: FMN 200 uM): 16.7 nM | apparent KD of MS2 coat protein (input ligand: none): 16 nM

ACAUGAGGAUCACCCAUGUCCGGCUGGUCUGUUCCGGCUGUCGAGGAUAUAGUCCGGUGUUCGCGCUAGAAGGUGAGGGCUGGA [Aenatbe mod 45] (Eterna round: R96, puzzle: Exclusion NG 3)
apparent KD of MS2 coat protein (input ligand: FMN 200 uM): 78.9 nM | apparent KD of MS2 coat protein [2]: 48.6 nM | apparent KD of MS2 coat protein (input ligand: none): 70.1 nM

GCCGGUUAAGUCAGGAUAUACCUAUGGAUACAUAGGUAGAAGGGACAUGAGGAUCACCCAUGUUCCUCAUCGGC [Fiskers BMX 4 - 13] (puzzle: Brourd's mod of Exclusion 4)
apparent KD of MS2 coat protein [1]: 13.3 nM

AAUUAAGCAAGCAGAUCCCACAUGAGGAUCACCCAUGUGCUCGUCUUAUAAGGUACUGUGACGAAAGUCACGGUACC [Mat - Sensor, turn-off var - Eli Mod - D72] (Eterna round: R97, puzzle: Sensor, turn-off variant 1)
apparent KD of MS2 coat protein (input ligand: FMN 200 uM): 129 nM | apparent KD of MS2 coat protein (input ligand: none): 120 nM

AAAGAGCGAGGAUAUACGUAUCGGUGCGGCCAGCCGAUGUGACAUGAGGAUCACCCAUGUAGAAGGCGCAGAAA [Excls2-IX] (puzzle: Exclusion 2)
apparent KD of MS2 coat protein [1]: 23.4 nM

AUUAAAGACCGAGGAUAUCGAGGAAAUACACUGCGAGAAGGCGGGUACUCGGACGAUUCGACAUGAGGAUCACCCAUGUGCACA [Tixequ] (Eterna round: R96, puzzle: Exclusion NG 1)
apparent KD of MS2 coat protein (input ligand: FMN 200 uM): 26.7 nM | apparent KD of MS2 coat protein [2]: 18.9 nM | apparent KD of MS2 coat protein (input ligand: none): 25.3 nM
